Experimental data taken from patent publication US20210032308A1 (published 2021).

Legend:
[1] = target: ML3d1-Pfe; experiment: SPR
[2] = target: ML1d1-Pfe; experiment: SPR

B1: CD2 (receptor)
chain: KEITNALETWGALGQDINLDIPSFQMSDDIDDIKWEKTSDKKKIAQFRKEKETFKEKDTYKLFKNGTLKIKHLKTDDQDIYKVSIYDTKGKNVLEKIFDLKIQERVSKPKISWTCINTTLTCEVMNGTDPELNLYQDGKHLKLSQRVITHKWTTSLSAKFKCTAGNKVSKESSVEPVSCPEKGLD
modifications: biotinylated (site not stated)
- Kd [1]: 52 nM
- Kd [2]: 82 nM
